Measurements published in patent US12264201B2, “Bispecific antibody targeting IL-1R1 and NLPR3” (University of Ulster, priority 2018, dated 2025).

Target: NLRP3 inflammasome (Homo sapiens, UniProt Q96P20)
Assay: In vitro assay of NLRP3 assembly (hybridoma clones)
Conditions: compared among the hybridoma clones

NLRP3 inflammasome, sequence (Q96P20 whole entry): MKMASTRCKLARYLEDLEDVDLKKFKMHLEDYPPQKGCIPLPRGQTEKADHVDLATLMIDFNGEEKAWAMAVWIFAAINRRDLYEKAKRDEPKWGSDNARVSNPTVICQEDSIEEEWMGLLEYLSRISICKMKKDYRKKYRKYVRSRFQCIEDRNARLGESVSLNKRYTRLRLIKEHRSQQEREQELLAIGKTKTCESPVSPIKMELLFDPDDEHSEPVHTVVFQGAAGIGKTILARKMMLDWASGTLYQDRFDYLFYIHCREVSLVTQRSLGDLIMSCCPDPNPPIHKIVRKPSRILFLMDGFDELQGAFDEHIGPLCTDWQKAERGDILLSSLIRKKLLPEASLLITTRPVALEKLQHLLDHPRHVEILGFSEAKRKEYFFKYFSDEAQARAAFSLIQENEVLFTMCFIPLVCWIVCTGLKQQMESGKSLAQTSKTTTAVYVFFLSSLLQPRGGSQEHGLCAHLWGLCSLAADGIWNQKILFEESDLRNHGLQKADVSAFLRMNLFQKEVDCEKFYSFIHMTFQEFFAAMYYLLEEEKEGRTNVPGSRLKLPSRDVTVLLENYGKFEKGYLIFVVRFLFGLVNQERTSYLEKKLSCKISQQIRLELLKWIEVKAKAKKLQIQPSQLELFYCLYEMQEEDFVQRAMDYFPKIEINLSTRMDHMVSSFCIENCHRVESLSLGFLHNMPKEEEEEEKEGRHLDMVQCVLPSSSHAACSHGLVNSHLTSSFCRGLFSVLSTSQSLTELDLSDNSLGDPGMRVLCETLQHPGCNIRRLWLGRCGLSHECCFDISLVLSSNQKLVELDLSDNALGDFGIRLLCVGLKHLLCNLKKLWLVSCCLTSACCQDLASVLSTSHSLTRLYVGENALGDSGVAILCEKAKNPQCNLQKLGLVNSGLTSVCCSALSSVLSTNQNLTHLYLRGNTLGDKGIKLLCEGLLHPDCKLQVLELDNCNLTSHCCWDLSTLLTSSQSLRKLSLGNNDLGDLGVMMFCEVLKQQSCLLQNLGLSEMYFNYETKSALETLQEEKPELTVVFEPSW

B1: F226 7A7-1E1-2D5: anti-NLRP3 monoclonal antibody from hybridoma clone, sequenced and used in the bispecific; VH SEQ ID NO: 36, VL SEQ ID NO: 43 (antibody)
VH: MDFGLSWVFLVLVLKGVQCEVQLVESGGGLVKPGGSLKLSCAASGFTFSDYYMYWVRQTPEKRLEWVATISDGGTYTYYPDSVKGRFTISRDNAKNNLYLQMNSLKSEDTAMYYCARGWVSTMVKLLSSFPYWGQGTLVTVSAAKTTPPSVYPLA
VL: MAWISLLFSLLALSSGAISQAVVTQESALTTSPGETVTLTCRSSTGAVTTSNYANWVQEKPDHLFTGLIGGTNNRAPGVPARFSGSLIGDKAALTITGAQTEDEAIYFCALWYSNYWVFGGGTKLTVLGQPKSSPSVTLFPPSTEKLSL
preventing NLRP3 assembly: most active
